Our source for the percent decrease of binding capacity against natural OVM values is paper PMC7124660.

The target of test [1] is hemagglutinin of avian influenza virus H5N1 (avian influenza virus H5N1). Nature of the test: ELISA.
Test [2] deals with hemagglutinin of avian influenza virus H1N1 (avian influenza virus H1N1). Kind of test: ELISA.

hemagglutinin of avian influenza virus H5N1 (avian influenza virus H5N1), sequence (Q9Q0U6 17-568): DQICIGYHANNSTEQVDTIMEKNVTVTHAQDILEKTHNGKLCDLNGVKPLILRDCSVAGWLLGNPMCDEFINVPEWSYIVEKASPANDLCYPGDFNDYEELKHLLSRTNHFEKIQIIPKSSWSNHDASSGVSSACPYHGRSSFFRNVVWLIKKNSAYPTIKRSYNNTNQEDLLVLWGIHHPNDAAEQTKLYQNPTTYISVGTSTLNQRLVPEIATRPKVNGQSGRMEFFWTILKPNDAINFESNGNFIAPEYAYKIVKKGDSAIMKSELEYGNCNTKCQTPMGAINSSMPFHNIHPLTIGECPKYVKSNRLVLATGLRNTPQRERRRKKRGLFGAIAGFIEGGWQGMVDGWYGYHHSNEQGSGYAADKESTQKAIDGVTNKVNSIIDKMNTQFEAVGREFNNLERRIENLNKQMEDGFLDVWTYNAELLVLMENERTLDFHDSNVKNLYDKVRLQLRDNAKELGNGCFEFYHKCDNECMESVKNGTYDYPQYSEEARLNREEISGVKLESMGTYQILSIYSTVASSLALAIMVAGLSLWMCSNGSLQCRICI

“Desialylated ovomucin (from UniProt Q98UI9;F1NBL0) (complex)”: the percent decrease of binding capacity against natural OVM came to 71.5% in test [1] and 64.2% in test [2].
